As a reminder, the stoichiometry N is a count of units in the complex or per binding partner.

Sequences and labels used below:
B1: mouse TOP6BL (Topoisomerase VIB-like) (natural protein, UniProt J3QMY9-1 1-579, looked up)
chain: MERTALAVCEILRYLIIHWKCEAGTAKGTLLDGQLVISIEALRSKHLPDSLHCIITIASTRSVYGGLNFKKFLQEIQPALPRLSAKLALASEEGGRSQDASGIAPCQVTFEVDENSQSLMTDCLVIKHFLRKIIIVHHKLKFSFSVAVNGTLSAETFGAENEPTLRLDNGVTLVVGFQRYVSKPKLNWSEAHCSRIHPVLGHPAPLFIPDAKADTGLLGELTLTPAAALCPSPKGFSSQLCRISSVSIFLYGPLGLPLLSSDQDQPSTAVFRDTSYFIDWKKYNLFMVPNLDLNLDTQSVLPDVNYKAESPEGNQSQNMNAQGPALLLFLFVDFQSDVPVQQAKIWGLHTLLTAHLSAILSESRSTVQQSIQSAVDQVWQLYHHDAKTQQRLQASLSVAVNSIMSVLTGSTRSSFRKTCLQALEAADTQEFGVKLHRIFYDITQHQFLKHCSCDTEQHLTPEKNISAQNTKDQHKNIAQEFPEESIGQAENKRPKRGSPNHGREESRVLGSARDRSPPKSATRDRELTEVSLTARGSQTQAAHGRAQAAEAASPAGGLEDLWLQEVSNLSEWLNPGHRS
notes: TOP6BL, mouse, untagged, full-length optimized coding DNA
B3: Flag-tagged mouse SPO11 (natural protein, UniProt Q9WTK8-1 1-396, looked up)
chain: MAFAPMGPEASFFDALDRHRASLLAMVKRGAGETPAGATRVASSSEVLTAIENIIQDIIKSLARNEVPAFTIDNRSSWENIMFDDSVGLRMIPQCTTRKIRSDSPKSVKKFALILKVLSMIYKLIQSDTYATKRDIYYTDSQLFGNQAAVDSAIDDISCMLKVPRRSLHVLSTSKGLIAGNLRYMEEDGTRVQCTCSATATAVPTNIQGMQHLITDAKFLLIVEKDATFQRLLDDNFCSRMSPCIMVTGKGVPDLNTRLLVKKLWDTFHIPVFTLVDADPYGIEIMCIYKYGSMSMSFEAHNLTIPTIRWLGLLPSDIQRLNIPKDSLIPLTKHDQMKLDSILKRPYITYQPLWKKELEMMADSKMKAEIQALTLLSSDYLSRVYLPNKLRFGGWI
notes: SPO11, mouse, b splicing isoform (includes exon 2), full-length optimized coding DNA; A TEV cleavage site stands between the Flag tag and SPO11; no cleavage is described; also called FlagSPO11; SPO11b; not shown: Flag, N-terminal, kept

The target of the data set “Flag-tagged mouse SPO11” is B3. The experiment in a line: SEC; Superdex 200 Increase 10/300 GL after anti-Flag M2 affinity purification of the co-expressed proteins; lysis buffer 25 mM HEPES-NaOH pH 7.5, 500 mM NaCl. Conditions: both partners purified. (In general: Size exclusion chromatography separates by hydrodynamic size, large species first.)
In data set [1] the target is T1, SPO11 (beta isoform), WT, in complex with TOP6BL;TOP6BL (Mus musculus;Mus musculus, UniProt Q9WTK8;J3QMY9 1-396;1-579, |).
T1 sequence 1: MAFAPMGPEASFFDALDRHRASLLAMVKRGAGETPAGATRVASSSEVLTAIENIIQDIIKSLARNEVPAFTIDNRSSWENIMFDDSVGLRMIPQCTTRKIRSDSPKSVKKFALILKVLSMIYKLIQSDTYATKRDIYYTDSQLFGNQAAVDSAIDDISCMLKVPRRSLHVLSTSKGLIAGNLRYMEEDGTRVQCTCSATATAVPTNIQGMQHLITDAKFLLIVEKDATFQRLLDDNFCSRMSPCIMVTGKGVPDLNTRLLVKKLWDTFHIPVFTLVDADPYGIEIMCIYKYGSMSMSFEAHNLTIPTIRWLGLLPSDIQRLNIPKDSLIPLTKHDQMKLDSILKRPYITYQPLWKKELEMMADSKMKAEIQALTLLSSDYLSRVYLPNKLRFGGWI
T1 sequence 2: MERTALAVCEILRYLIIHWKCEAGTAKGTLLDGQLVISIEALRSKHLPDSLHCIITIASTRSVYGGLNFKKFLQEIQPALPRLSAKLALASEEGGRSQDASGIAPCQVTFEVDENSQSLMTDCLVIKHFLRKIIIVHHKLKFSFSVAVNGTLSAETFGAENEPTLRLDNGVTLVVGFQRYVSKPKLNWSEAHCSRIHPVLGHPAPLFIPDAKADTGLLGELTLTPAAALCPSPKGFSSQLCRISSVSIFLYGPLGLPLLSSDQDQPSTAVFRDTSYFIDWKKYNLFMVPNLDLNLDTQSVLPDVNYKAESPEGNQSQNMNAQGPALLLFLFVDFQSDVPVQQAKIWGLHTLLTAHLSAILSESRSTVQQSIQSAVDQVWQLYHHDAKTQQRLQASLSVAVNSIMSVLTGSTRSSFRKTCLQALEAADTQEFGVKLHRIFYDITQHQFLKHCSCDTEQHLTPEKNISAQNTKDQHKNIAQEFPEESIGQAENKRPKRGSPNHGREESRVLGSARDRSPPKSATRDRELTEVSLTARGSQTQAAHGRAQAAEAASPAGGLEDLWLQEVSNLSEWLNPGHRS
The data set can be described thus: EMSA; apparent Kd (first monomer complex); 5 mM Mg2+, 4 C, 50 mM NaCl; doubly bound complexes form; EMSA: 25 mM Tris-HCl pH 7.5, 100 mM NaCl, 5 mM MgCl2, 2 mM DTT, 7.5% glycerol, 1 mg/ml BSA, 0.1 nM DNA, 30 C 30 min; cleavage substrate: 25 mM HEPES-NaOH pH 7.5, 50 mM NaCl, 5 mM MgCl2, 2 mM DTT, 7.5% glycerol, 1 mg/ml BSA, 4 C 30 min. To be noted: protein: recombinant;recombinant; tags: N-terminal Flag-TEV;untagged; copies: 1;1; label: internal 32P (5'-labeled before ligation); closed dumbbell, 44 bp duplex, A4 loop at both ends.

For data set [2], the target named is B1. The experiment in a line: mass photometry; Refeyn OneMP; 28 nM protein; 25 mM HEPES-NaOH pH 7.5, 150 mM NaCl, 2 mM DTT; with 5 mM ATP. To be noted: both partners purified.

Consider B1, for which, in the data set with Flag-tagged mouse SPO11, the “stoichiometry N” value worked out at 1.

B2: oligonucleotide cleavage substrate, 44 bp duplex with A4 loops (structured_DNA)
DNA: CGGTTCAAAAGAACCGGAGCTGAATGAAGCCATACCAAACGACGAGCGTGACACAAAAGTGTCACGCTCGTCGTTTGGTATGGCTTCATTCAGCTC
modifications: circular, ligated by T4 DNA ligase
As to B2, in data set [1], the Kd turned out to be 1.8 nM.
In the case of B3, the binding result in data set [2] is “binds”.

These data come from doi:10.1101/2024.11.20.624382, “Reconstitution of SPO11-dependent double-strand break formation” (bioRxiv, 2024).
